Experimental data: publication PMC5296760, “Structural basis of the interaction between Topoisomerase IIIβ and the TDRD3 auxiliary factor” (Scientific Reports, 2017)
Where “and” joins values, the source holds several entries; their conditions need not be identical. Equal values may be shown once.

T1: TOP3β TOPO domain (1–612) (human, UniProt O95985 1-612)
T1 construct: human Topoisomerase IIIβ, topoisomerase (TOPO) domain, residues 1–612; also called TOP3β (1–612); catalytic domain of TOP3β; source: baculovirus-infected Sf9 cells, purified (Glutathione Sepharose, GST removed by HRV 3C protease, SEC); not shown: GST, N-terminal, cleaved
T1 sequence (looked up): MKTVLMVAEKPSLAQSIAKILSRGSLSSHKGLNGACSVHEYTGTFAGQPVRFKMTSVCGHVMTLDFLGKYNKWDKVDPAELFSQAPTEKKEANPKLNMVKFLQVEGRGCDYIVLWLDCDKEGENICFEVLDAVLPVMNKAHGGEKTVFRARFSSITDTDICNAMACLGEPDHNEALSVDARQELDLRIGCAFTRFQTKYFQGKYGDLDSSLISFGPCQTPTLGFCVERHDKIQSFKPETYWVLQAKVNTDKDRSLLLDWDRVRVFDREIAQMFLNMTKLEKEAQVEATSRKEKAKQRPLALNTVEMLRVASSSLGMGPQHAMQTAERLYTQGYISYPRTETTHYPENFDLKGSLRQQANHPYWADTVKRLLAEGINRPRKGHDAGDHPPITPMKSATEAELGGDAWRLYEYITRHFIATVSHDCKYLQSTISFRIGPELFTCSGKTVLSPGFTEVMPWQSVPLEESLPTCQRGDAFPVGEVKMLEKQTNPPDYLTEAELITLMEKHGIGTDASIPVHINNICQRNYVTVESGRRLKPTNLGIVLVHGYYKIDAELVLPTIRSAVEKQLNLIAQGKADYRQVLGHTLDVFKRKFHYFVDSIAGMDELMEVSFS

B1: TDRD3 OB-fold domain (48–171) (domain or fragment, human, UniProt Q9H7E2-3 48-171, looked up)
chain: IGKKFLPSDINSGKVEKLEGPCVLQIQKIRNVAAPKDNEESQAAPRMLRLQMTDGHISCTAVEFSYMSKISLNTPPGTKVKLSGIVDIKNGFLLLNDSNTTVLGGEVEHLIEKWELQRSLSKHN
notes: human TDRD3 OB-fold domain, residues 48–171; purification is described only for DUF–OB; also called TDRD3 OB-fold domain alone; source: E. coli Rosetta (DE3) (as told for DUF–OB)
B2: TDRD3 (1–161) of the TOP3β–TDRD3 complex (domain or fragment, human, UniProt Q9H7E2-3 1-161, looked up)
chain: MAQVAGAALSQAGWYLSDEGIEACTSSPDKVNVNDIILIALNTDLRTIGKKFLPSDINSGKVEKLEGPCVLQIQKIRNVAAPKDNEESQAAPRMLRLQMTDGHISCTAVEFSYMSKISLNTPPGTKVKLSGIVDIKNGFLLLNDSNTTVLGGEVEHLIEKW
notes: human TDRD3 DUF1767 and OB-fold domains; made as 1–171, cut by chymotrypsin at Trp161, deposited as 1–161; also called TDRD3 DUF–OB; source: E. coli Rosetta (DE3), purified; TDRD3 (1–171) mixed with TOP3β (1–612), trimmed with chymotrypsin, SEC; not shown: GST, N-terminal, cleaved

Molecular target: GST-TOP3β (1–612), wild type (human) (UniProt O95985)
Assay: pull-down; GST-TOP3β (1–612) on Glutathione Sepharose FF, 1.0 μM TDRD3 or RMI1 protein (Fig. 3f right, 4b); same buffer, 4 °C, 2 hrs; Coomassie, densitometry
Conditions: not given

percent of wild-type binding [%]	Molecule
40	TDRD3 DUF–OB V^79-SSGG-P^92 (from UniProt Q9H7E2-3 1-161) (domain or fragment)
80	TDRD3 DUF–OB A80S/A81Q/A90K/A91P/P92S (from UniProt Q9H7E2-3 1-161) (domain or fragment)

Molecular target: T1, TOP3β TOPO domain (1–612)
Assay: SEC; binding analysis using size-exclusion column chromatography (Supplementary Fig. 3a)
Conditions: both partners purified

binding result	Molecule
binds	B1

Molecular target: GST-TOP3β (1–612), wild type (human) (UniProt O95985)
Assay: pull-down; GST-TOP3β (1–612) on Glutathione Sepharose FF, 0.5 μM TDRD3 or RMI1 protein (Fig. 3c, 4d, 4e); 20 mM Tris-Cl pH 7.4, 200 mM NaCl, 1 mM MgCl2, 5 mM β-mercaptoethanol, 0.1% Triton X-100, 4 °C, 2 hrs; Coomassie, densitometry
Conditions: not given

percent of wild-type binding	Molecule
> 70%	TDRD3 DUF–OB R96M/V109M (from UniProt Q9H7E2-3 1-161) (domain or fragment)
> 70%	TDRD3 DUF–OB F111Y (from UniProt Q9H7E2-3 1-161) (domain or fragment)
> 70%	TDRD3 DUF–OB V109M/F111Y/F139V (from UniProt Q9H7E2-3 1-161) (domain or fragment)
> 70%	TDRD3 DUF–OB R96M/F111Y (from UniProt Q9H7E2-3 1-161) (domain or fragment)
70%	TDRD3-RMI1loop (from UniProt Q9H7E2-3 1-78; Q9H9A7 95-132; Q9H7E2-3 93-161) (domain or fragment)
> 70%	TDRD3 DUF–OB R96M (from UniProt Q9H7E2-3 1-161) (domain or fragment)
> 70%	TDRD3 DUF–OB R96M/F139V (from UniProt Q9H7E2-3 1-161) (domain or fragment)
> 70%	TDRD3 DUF–OB V109M (from UniProt Q9H7E2-3 1-161) (domain or fragment)
> 70%	TDRD3 DUF–OB F139V (from UniProt Q9H7E2-3 1-161) (domain or fragment)
35% and 30%	TDRD3 DUF–OB R96M/V109M/F139V (from UniProt Q9H7E2-3 1-161) (domain or fragment)

Molecular target: T1, TOP3β TOPO domain (1–612)
Assay: crystal structure; TOP3β (1–612)–TDRD3 (1–161) complex, 3.6 Å; sitting drop, 20 °C, 50 mM Na-cacodylate pH 6.2, 10 mM MgSO4, 1.7 M Li2SO4
Conditions: both partners purified

binding result	Molecule
binds	B2

Molecular target: GST-TOP3β (1–612), wild type (human) (UniProt O95985)
Assay: pull-down; GST-TOP3β (1–612) on Glutathione Sepharose FF, 0.2 μM TDRD3 protein (Fig. 3f left); same buffer, 4 °C, 2 hrs; Coomassie, densitometry
Conditions: not given

percent of wild-type binding [%]	Molecule
> 60	TDRD3 DUF–OB A80S/A81S (from UniProt Q9H7E2-3 1-161) (domain or fragment)
50	TDRD3 DUF–OB P92S (from UniProt Q9H7E2-3 1-161) (domain or fragment)
60	TDRD3 DUF–OB P^82-GSGSGGS-A^90 (from UniProt Q9H7E2-3 1-161) (domain or fragment)
> 60	TDRD3 DUF–OB V79S (from UniProt Q9H7E2-3 1-161) (domain or fragment)
30	TDRD3 DUF–OB V79S/P82S (from UniProt Q9H7E2-3 1-161) (domain or fragment)
> 60	TDRD3 DUF–OB P82S (from UniProt Q9H7E2-3 1-161) (domain or fragment)
